In the Immune Epitope Database (IEDB) one finds Kd data, which are given here for six sequences.

For one test, the target named is HLA-C*12:03. The experiment in a line: IEDB peptide-MHC binding, purified MHC/direct/fluorescence; filed as Kd, often an IC50 or EC50 that approximates it; ≥ and ≤ were set here for values at or beyond the usual limits of such assays. The conditions noted are these: source organism: Homo sapiens.
The target in test [1] is HLA-A*02:01. The experiment in a line: IEDB peptide-MHC binding, purified MHC/competitive/fluorescence; filed as Kd, often an IC50 or EC50 that approximates it; ≥ and ≤ were set here for values at or beyond the usual limits of such assays. The conditions noted are these: source organism: Homo sapiens.
The target of test [2] is HLA-A*03:01. The description is as above. The conditions noted are these: source organism: Homo sapiens.
Test [3] deals with HLA-A*26:01. The test is described as above. The conditions noted are these: source organism: Homo sapiens.
In the next test the target is HLA-A*32:15. Described as above.
For the next test, the target named is HLA-B*15:42. The test is described as above.
The next test deals with HLA-B*27:03. The test is described as above. The conditions noted are these: source organism: Homo sapiens.
The target in another test is HLA-B*45:06. The test is described as above.
In a further test the target is HLA-B*83:01. Described as above.
The target of a further test is HLA-A*01:01. The experiment in a line: IEDB peptide-MHC binding, purified MHC/direct/fluorescence; filed as Kd, often an IC50 or EC50 that approximates it; ≥ and ≤ were set here for values at or beyond the usual limits of such assays. The conditions noted are these: source organism: Marburg virus - Musoke, Kenya, 1980.
For test [4], the target named is HLA-A*02:01. The description is as above.
Test [5] has as its target HLA-A*11:01. Described as above. The conditions noted are these: source organism: Marburg virus - Musoke, Kenya, 1980.
The target of a further test is HLA-A*31:01. Described as above.
Test [6] addresses HLA-A*68:02. Described as above. The conditions noted are these: source organism: Marburg virus - Musoke, Kenya, 1980.
A further test has as its target HLA-A*69:01. Described as above.
A further test addresses HLA-B*07:02. The description is as above.
In a further test the target is HLA-B*08:01. The description is as above.
Test [7] concerns the target HLA-B*15:01. The description is as above.
In the next test the target is HLA-B*15:02. The description is as above. The conditions noted are these: source organism: Orthomarburgvirus marburgense.
Test [8] has as its target HLA-B*15:17. The test is described as above. The conditions noted are these: source organism: Marburg virus - Musoke, Kenya, 1980.
For a further test, the target named is HLA-B*27:05. The test is described as above.
Test [9] concerns the target HLA-B*46:01. The description is as above.
The target in the next test is HLA-B*48:01. Described as above.
A further test deals with HLA-B*57:01. Described as above.
The target in the next test is HLA-B*58:01. The description is as above.
For test [10], the target named is HLA-A*26:02. The test can be described thus: IEDB peptide-MHC binding, purified MHC/competitive/fluorescence; filed as Kd, often an IC50 or EC50 that approximates it; ≥ and ≤ were set here for values at or beyond the usual limits of such assays. The conditions noted are these: source organism: Orthomarburgvirus marburgense.
In test [11] the target is HLA-A*26:02. The experiment in a line: IEDB peptide-MHC binding, purified MHC/direct/fluorescence; filed as Kd, often an IC50 or EC50 that approximates it; ≥ and ≤ were set here for values at or beyond the usual limits of such assays.
For another test, the target named is HLA-A*30:02. The experiment in a line: IEDB peptide-MHC binding, purified MHC/competitive/radioactivity; filed as Kd, often an IC50 or EC50 that approximates it; ≥ and ≤ were set here for values at or beyond the usual limits of such assays. The conditions noted are these: source organism: Dengue virus 1 Brazil/97-11/1997.
Test [12] deals with HLA-B*15:01. The test is described as above. The conditions noted are these: source organism: Dengue virus 1 Brazil/97-11/1997.
Test [13] addresses HLA-A*03:01. The experiment in a line: IEDB peptide-MHC binding, purified MHC/direct/fluorescence; filed as Kd, often an IC50 or EC50 that approximates it; ≥ and ≤ were set here for values at or beyond the usual limits of such assays. The conditions noted are these: source organism: Influenza A virus (A/Hong Kong/514/97(H5N1)).
The next test concerns the target HLA-B*40:01. The test is described as above. The conditions noted are these: source organism: Influenza A virus (A/Hong Kong/514/97(H5N1)).
Another test concerns the target HLA-C*08:02. The description is as above.
Test [14] concerns the target HLA-A*11:01. The experiment in a line: IEDB peptide-MHC binding, purified MHC/competitive/fluorescence; filed as Kd, often an IC50 or EC50 that approximates it; ≥ and ≤ were set here for values at or beyond the usual limits of such assays. The conditions noted are these: source organism: Influenza A virus (A/Hong Kong/1074/1999(H9N2)).
In test [15] the target is HLA-B*15:17. Described as above. The conditions noted are these: source organism: Influenza A virus (A/Hong Kong/1074/1999(H9N2)).
Another test has as its target HLA-C*05:01. The experiment in a line: IEDB peptide-MHC binding, purified MHC/direct/fluorescence; filed as Kd, often an IC50 or EC50 that approximates it; ≥ and ≤ were set here for values at or beyond the usual limits of such assays. The conditions noted are these: source organism: dengue virus type 1.
The next test deals with HLA-C*06:02. The description is as above. The conditions noted are these: source organism: dengue virus type 1.
The target in the next test is HLA-C*14:02. The test is described as above. The conditions noted are these: source organism: dengue virus type 1.
Test [16] deals with HLA-B*46:01. The test can be described thus: IEDB peptide-MHC binding, purified MHC/competitive/fluorescence; filed as Kd, often an IC50 or EC50 that approximates it; ≥ and ≤ were set here for values at or beyond the usual limits of such assays. The conditions noted are these: source organism: dengue virus type 1.
Test [17] concerns the target HLA-A*02:01. The experiment in a line: IEDB peptide-MHC binding, purified MHC/competitive/radioactivity; filed as Kd, often an IC50 or EC50 that approximates it; ≥ and ≤ were set here for values at or beyond the usual limits of such assays. The conditions noted are these: source organism: Dengue virus 2 Jamaica/1409/1983.
Another test concerns the target HLA-A*02:03. The test is described as above. The conditions noted are these: source organism: Dengue virus 2 Jamaica/1409/1983.
The target of another test is HLA-A*02:06. Described as above. The conditions noted are these: source organism: Dengue virus 2 Jamaica/1409/1983.
For a further test, the target named is HLA-A*02:17. The test is described as above. The conditions noted are these: source organism: Dengue virus 2 Jamaica/1409/1983.
Test [18] concerns the target HLA-A*68:02. The description is as above. The conditions noted are these: source organism: Dengue virus 2 Jamaica/1409/1983.
Test [19] addresses HLA-A*26:01. The experiment in a line: IEDB peptide-MHC binding, purified MHC/direct/fluorescence; filed as Kd, often an IC50 or EC50 that approximates it; ≥ and ≤ were set here for values at or beyond the usual limits of such assays. The conditions noted are these: source organism: Giardia lamblia ATCC 50803.
[20] abbreviates: source organism: Marburg virus - Musoke, Kenya, 1980.
[21] abbreviates: source organism: Influenza A virus (A/Hong Kong/514/97(H5N1)).
The mark [22] stands for this setting: source organism: dengue virus type 1.

The term Kd denotes the equilibrium constant for the complex coming apart. FLNPVIYTF: the Kd was 29 nM with HLA-C*12:03; 1.6 nM with HLA-A*02:01 [1]; at least 20 µM in the test with HLA-A*03:01 [2]; at least 20 µM with HLA-A*26:01 [3]; 24 nM with HLA-A*32:15 (source organism: Homo sapiens); at least 5 µM with HLA-B*15:42 (source organism: Homo sapiens). Besides, the figures for the dissociation constant Kd with HLA-B*27:03, with HLA-B*45:06 (source organism: Homo sapiens) and with HLA-B*83:01 (source organism: Homo sapiens) were at least 20 µM, at least 5 µM and 240 nM, respectively.

For NQQVTNSKY, the Kd with HLA-A*01:01, in the test with HLA-A*02:01 [4] (setting [20]), with HLA-A*11:01 [5], in the test with HLA-A*31:01 (setting [20]), in the test with HLA-A*68:02 [6] and in the test with HLA-A*69:01 (setting [20]) was at least 20 µM in each case. Also, the Kd with HLA-B*07:02 (setting [20]) is at least 20 µM; in the test with HLA-B*08:01 (source organism: Orthomarburgvirus marburgense), at least 20 µM; with HLA-B*15:01 [7] (setting [20]), 80.3 nM; with HLA-B*15:02 it was 87 nM; with HLA-B*15:17 [8] it was at least 20 µM; in the test with HLA-B*27:05 (setting [20]) it was at least 20 µM. In addition, the equilibrium dissociation constant (Kd) in the test with HLA-B*46:01 [9] (setting [20]) is at least 20 µM; with HLA-B*48:01 (setting [20]), at least 20 µM; with HLA-B*57:01 (setting [20]), at least 20 µM; in the test with HLA-B*58:01 (setting [20]) it was at least 20000 nM; in the test with HLA-A*26:02 [10], at least 20 µM.

Consider SVKKDLISY, for which the dissociation constant Kd with HLA-A*26:02 [11] (source organism: dengue virus type 3) was determined as 2 nM; with HLA-A*30:02 it was 26.1 nM; in the test with HLA-B*15:01 [12], 5.96 nM.

As to VSDGGPNLY, the Kd with HLA-A*02:01 [4] (setting [21]), with HLA-A*03:01 [13], with HLA-A*31:01 (setting [21]), with HLA-A*69:01 (setting [21]), in the test with HLA-B*07:02 (setting [21]) and in the test with HLA-B*08:01 (source organism: Influenza A virus H3N2) was at least 20 µM throughout. The dissociation constant (Kd) with HLA-B*15:01 [7] (setting [21]) is 2990 nM; with HLA-B*27:05 (setting [21]) it was at least 20 µM; with HLA-B*40:01 it was at least 20 µM; with HLA-B*46:01 [9] (setting [21]) it was at least 20 µM; with HLA-B*48:01 (setting [21]), at least 20 µM; in the test with HLA-B*57:01 (setting [21]), 16.7 µM. Further, the equilibrium dissociation constant (Kd) with HLA-B*58:01 (setting [21]) is 553 nM; with HLA-C*08:02 (source organism: Influenza A virus (A/Hong Kong/1074/1999(H9N2))), 86 nM; with HLA-A*11:01 [14], at least 20 µM; with HLA-B*15:17 [15] it was 192 nM.

On to FTMRLLSPV, for which the Kd is 2290 nM with HLA-C*05:01; at least 20 µM with HLA-C*06:02; 316 nM in the test with HLA-C*08:02 (setting [22]); 98 nM with HLA-C*14:02; 116 nM with HLA-A*32:15 (setting [22]); at least 5 µM in the test with HLA-B*15:42 (setting [22]). Moreover, the Kd in the test with HLA-B*45:06 (setting [22]) was at least 5 µM; with HLA-B*46:01 [16] it was 15 nM; in the test with HLA-B*83:01 (setting [22]), at least 5000 nM; with HLA-A*02:01 [17], 1.56 nM; with HLA-A*02:03, 3.44 nM; in the test with HLA-A*02:06, 4.32 nM. The Kd came to 29.8 nM with HLA-A*02:17 and 0.78 nM with HLA-A*68:02 [18].

Take ITSGHSWAY: the Kd in the test with HLA-A*26:01 [19] stood at 28 nM; in the test with HLA-A*26:02 [11] (source organism: Giardia lamblia ATCC 50803) it was 34 nM.
